Earlier results as cited in patent US20260109963A1, “COMPOSITIONS, SYSTEMS, AND METHODS FOR REDUCING ADIPOSE TISSUE” (Oisin Biotechnologies, Inc., priority 2023, published 2026).

Test system: Heart
Conditions: almost completely abrogated after IV delivery

B1: miR1d: miRNA/target site de-targeting heart & skeletal muscle (nucleic acid)
chain: GGCCGGCCAATACATACTTCTTTACATTCCACGATAATACATACTTCTTTACATTCCAACCGGTAATACATACTTCTTTACATTCCATCACAATACATACTTCTTTACATTCCAGGCCGGCC
modifications: listed as DNA, chemistry not fully specified; the letters are possibly those of the target site
notes: miRNA/target site de-targeting heart & skeletal muscle
Question: For B1, which “transgene expression in heart (in words)” value is on record?
Answer: Transgene expression in heart almost
